According to patent publication US7723070B2, “Overexpression of aminoacyl-tRNA synthetases for efficient production of engineered proteins containing amino acid analogues” (California Institute of Technology, priority 2000, dated 2010):

Experiments:
[1] = substrate: CSCC[C@H](N)C(=O)O; assay: purified protein, by the assay type; conditions: 25.0 °C
[2] = substrate: C=CCCC(N)C(=O)O; assay: ATP-PPi exchange assay: activation of methionine and methionine analogues by MetRS; assay type: biochemical, E. coli; conditions: other: ATP-PPi exchange, purified truncated MetRS; 25.0 °C
Protocol: (§1) Activation of methionine analogues by MetRS was assayed via the amino-acid-dependent ATP-PPi exchange reaction, also as previously described (Mellot, P.; Mechulam, Y.; LeCorre, D.; Blanquet, S.; Fayat, G. J. Mol. Biol. 1989, 208, 429; Blanquet, S.; Fayat, G.; Waller, J.-P. Eur. J. Biochem. 1974, 44, 343; Ghosh, G.; Pelka, H.; Schulman, L. H. Biochemistry 1990, 29, 2220). The assay, which measures the ^32P-radiolabeled ATP formed by the enzyme-catalyzed exchange of ^32P-pyrophosphate (PPi) into ATP, was conducted in 150 μl of reaction buffer (pH 7.6, 20 mM imidazole; 0.1 mM EDTA, 10 mM β-mercaptoethanol, 7 mM MgCl2, 2 mM ATP, 0.1 mg/ml BSA, and 2 mM PPi (in the form of sodium pyrophosphate with a specific activity of approximately 0.18 TBq/mole)). […] Kinetic parameters for analogue 5 were obtained with an enzyme concentration of 75 nM and analogue concentrations of 100 μM to 10 mM. Parameters for methionine were obtained by using concentrations ranging from 10 μM to 1 mM. […] Aliquots of 20 μl were removed from the reaction mixture at various time points and were quenched in 0.5 ml of a solution comprising 200 mM PPi, 7% w/v HClO4, and 3% w/v activated charcoal. The charcoal was rinsed twice with 0.5 mL of a 10 mM PPi, 0.5% HClO4 solution and was then resuspended in 0.5 mL of this solution and counted via liquid scintillation methods. Kinetic constants were calculated by nonlinear regression analysis.
(§2) Activation of methionine analogues by MetRS was assayed at 25° C. via the amino acid-dependent ATP-PPi exchange reaction, also as described in Example I (G. Ghosh, H. Pelka, L. H. Schulman, Biochemistry 1990, 29, 2220-2225). […] Kinetic parameters for analogue 5 were obtained with an enzyme concentration of 50 nM and analogue concentrations of 100 μM to 10 mM. […] Kinetic parameters for analogues 4, 7, 8, and 12 were obtained with an enzyme concentration of 50 or 75 nM and analogue concentrations ranging from 5 to 70 mM. Parameters for methionine were obtained by using concentrations ranging from 10 μM to 1 mM. […] Kinetic constants were calculated by nonlinear regression analysis.

[3] = substrate: C/C=C/CC(N)C(=O)O; assay: as above; assay type: biochemical, E. coli; conditions: 25.0 °C
Protocol: as §1, §2

[4] = substrate: CCCC[C@H](N)C(=O)O; assay: as above; assay type: biochemical, E. coli; conditions: other: ATP-PPi exchange, purified truncated MetRS; 25.0 °C
Protocol: as §1, §2

[5] = substrate: C#CCCC(N)C(=O)O; assay: as above; assay type: biochemical, E. coli; conditions: other: ATP-PPi exchange, purified truncated MetRS; 25.0 °C
Protocol: as §1, §2

[6] = other: ATP-PPi exchange, purified truncated MetRS
[7] = other: Example I text, 75 nM enzyme

B1: methionyl tRNA synthetase (MetRS) (Escherichia coli K-12) (protein)
chain: MTQVAKKILVTCALPYANGSIHLGHMLEHIQADVWVRYQRMRGHEVNFICADDAHGTPIMLKAQQLGITPEQMIGEMSQEHQTDFAGFNISYDNYHSTHSEENRQLSELIYSRLKENGFIKNRTISQLYDPEKGMFLPDRFVKGTCPKCKSPDQYGDNCEVCGATYSPTELIEPKSVVSGATPVMRDSEHFFFDLPSFSEMLQAWTRSGALQEQVANKMQEWFESGLQQWDISRDAPYFGFEIPNAPGKYFYVWLDAPIGYMGSFKNLCDKRGDSVSFDEYWKKDSTAELYHFIGKDIVYFHSLFWPAMLEGSNFRKPSNLFVHGYVTVNGAKMSKSRGTFIKASTWLNHFDADSLRYYYTAKLSSRIDDIDLNLEDFVQRVNADIVNKVVNLASRNAGFINKRFDGVLASELADPQLYKTFTDAAEVIGEAWESREFGKAVREIMALADLANRYVDEQAPWVVAKQEGRDADLQAICSMGINLFRVLMTYLKPVLPKLTERAEAFLNTELTWDGIQQPLLGHKVNPFKALYNRIDMRQVEALVEASK
notes: The fully active, truncated form of methionyl tRNA synthetase (MetRS) was purified from overnight cultures of JM101 cells carrying the plasmid pGG3; made in house; host or cells: E. coli JM101 carrying plasmid pGG3
With B1 the Km [1, 6] was 24.3 ± 2 µM, the kcat [1, 6] was 13.3 s⁻¹ and the kcat/Km [1, 6] was 547000 M⁻¹ s⁻¹. It also gave a kcat/Km [1, 7] of 0.54 s^−1μM^−1, a Km [2] of 4.555 ± 0.2 mM and a kcat [2] of 1.35 ± 0.1 s⁻¹. For the same protein, the kcat/Km [2] was 296 M⁻¹ s⁻¹, the Km [3, 6] was 15,675 ± 250 μM and the kcat [3, 6] was 1.82 ± 0.6 s⁻¹. The kcat/Km [3, 6] was 116 M⁻¹ s⁻¹, the kcat/Km [3, 7] was 1.1×10^−4 s^−1μM^−1 and the Km [4] was 4.12 ± 0.9 mM. It also gave a kcat [4] of 2.15 ± 0.6 s⁻¹, a kcat/Km [4] of 522 M⁻¹ s⁻¹ and a Km [5] of 2415 ± 170 µM. The kcat [5] was 2.6 ± 0.3 s⁻¹ and the kcat/Km [5] was 1080 M⁻¹ s⁻¹.
